Experiment [1] addresses MtSteAΔTM (M. tuberculosis SteA truncated soluble construct, residues 12-344) (Mycobacterium tuberculosis). The experiment in a line: crystal structure.
For experiment [2] the target is unchanged. The experiment in a line: SEC-SLS.

A word on the stoichiometry N: it is a count of units in the complex or per binding partner.

For the substance “MtSteAΔTM (M. tuberculosis SteA truncated soluble construct, residues 12-344) (domain or fragment)”, the stoichiometry N in experiment [1] and in experiment [2] was 2 throughout.
